Values quoted from earlier work as cited in article PMC3377446.

Molecular target: PDL1 (Homo sapiens) (UniProt Q9NZQ7)
Chain of UniProt Q9NZQ7 (Q9NZQ7 19-238): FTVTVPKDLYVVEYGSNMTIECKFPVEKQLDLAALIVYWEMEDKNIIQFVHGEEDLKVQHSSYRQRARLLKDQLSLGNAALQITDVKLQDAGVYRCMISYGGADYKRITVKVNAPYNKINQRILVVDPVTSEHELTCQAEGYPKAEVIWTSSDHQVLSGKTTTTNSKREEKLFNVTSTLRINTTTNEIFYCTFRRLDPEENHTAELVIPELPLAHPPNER

Question: For CD80 (from UniProt P33681), which Kd is on record?
Answer: 1.4 µM
